T1: CTLA4 Fc bIgG3aWinSAS (canine; bovine, UniProt Q9XSI1 36-161, limits assumed)
T1 construct: No linker
T1 sequence: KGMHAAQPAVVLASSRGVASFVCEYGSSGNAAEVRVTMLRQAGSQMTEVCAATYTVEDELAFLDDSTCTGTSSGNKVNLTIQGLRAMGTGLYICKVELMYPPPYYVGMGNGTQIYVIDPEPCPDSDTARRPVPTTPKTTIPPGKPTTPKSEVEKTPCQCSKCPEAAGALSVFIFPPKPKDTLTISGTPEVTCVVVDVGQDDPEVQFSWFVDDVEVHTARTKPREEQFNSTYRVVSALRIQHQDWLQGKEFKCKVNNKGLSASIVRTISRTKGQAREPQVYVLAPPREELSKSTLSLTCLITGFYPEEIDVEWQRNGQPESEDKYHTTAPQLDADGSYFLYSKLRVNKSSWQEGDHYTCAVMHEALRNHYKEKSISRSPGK

T2: CTLA4 Fc bIgG3aSAS (canine; bovine, UniProt Q9XSI1 36-161, limits assumed)
T2 construct: No linker
T2 sequence: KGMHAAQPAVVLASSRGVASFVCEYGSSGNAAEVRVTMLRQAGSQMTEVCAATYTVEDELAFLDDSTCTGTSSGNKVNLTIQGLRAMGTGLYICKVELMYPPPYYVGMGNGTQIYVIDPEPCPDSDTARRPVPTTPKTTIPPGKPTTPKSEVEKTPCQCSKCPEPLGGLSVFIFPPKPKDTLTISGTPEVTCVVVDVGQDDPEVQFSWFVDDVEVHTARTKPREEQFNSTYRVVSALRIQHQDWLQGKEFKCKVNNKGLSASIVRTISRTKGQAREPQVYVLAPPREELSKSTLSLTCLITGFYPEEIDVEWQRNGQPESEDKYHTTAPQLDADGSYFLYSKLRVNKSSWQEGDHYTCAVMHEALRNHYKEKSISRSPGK

T3: CTLA4 Fc bIgG3aSAP (canine; bovine, UniProt Q9XSI1 36-161, limits assumed)
T3 construct: No linker
T3 sequence: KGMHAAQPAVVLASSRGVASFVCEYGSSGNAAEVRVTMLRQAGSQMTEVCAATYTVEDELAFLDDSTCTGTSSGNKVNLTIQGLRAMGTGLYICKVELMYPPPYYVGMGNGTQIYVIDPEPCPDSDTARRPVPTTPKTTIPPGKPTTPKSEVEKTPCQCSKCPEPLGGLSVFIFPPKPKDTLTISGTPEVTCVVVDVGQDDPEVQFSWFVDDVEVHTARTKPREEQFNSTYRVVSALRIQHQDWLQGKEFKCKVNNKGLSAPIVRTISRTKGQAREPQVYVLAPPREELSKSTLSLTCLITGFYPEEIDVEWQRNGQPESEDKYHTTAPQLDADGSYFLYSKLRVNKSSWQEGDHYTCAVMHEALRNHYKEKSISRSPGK

T4: CTLA4 Fc bIgG1aWin (canine; bovine, UniProt Q9XSI1 36-161, limits assumed)
T4 construct: No linker
T4 sequence: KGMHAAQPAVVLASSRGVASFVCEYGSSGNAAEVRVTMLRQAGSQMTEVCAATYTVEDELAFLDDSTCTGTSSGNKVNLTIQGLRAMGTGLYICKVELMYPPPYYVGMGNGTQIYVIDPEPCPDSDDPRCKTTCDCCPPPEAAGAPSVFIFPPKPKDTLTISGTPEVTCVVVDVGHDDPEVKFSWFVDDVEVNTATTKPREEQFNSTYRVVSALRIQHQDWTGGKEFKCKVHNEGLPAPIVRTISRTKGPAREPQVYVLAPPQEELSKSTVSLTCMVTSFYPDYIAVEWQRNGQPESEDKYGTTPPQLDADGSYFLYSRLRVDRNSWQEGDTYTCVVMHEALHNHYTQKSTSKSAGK

T5: CTLA4 Fc bIgG1aSAS (canine; bovine, UniProt Q9XSI1 36-161, limits assumed)
T5 construct: No linker
T5 sequence: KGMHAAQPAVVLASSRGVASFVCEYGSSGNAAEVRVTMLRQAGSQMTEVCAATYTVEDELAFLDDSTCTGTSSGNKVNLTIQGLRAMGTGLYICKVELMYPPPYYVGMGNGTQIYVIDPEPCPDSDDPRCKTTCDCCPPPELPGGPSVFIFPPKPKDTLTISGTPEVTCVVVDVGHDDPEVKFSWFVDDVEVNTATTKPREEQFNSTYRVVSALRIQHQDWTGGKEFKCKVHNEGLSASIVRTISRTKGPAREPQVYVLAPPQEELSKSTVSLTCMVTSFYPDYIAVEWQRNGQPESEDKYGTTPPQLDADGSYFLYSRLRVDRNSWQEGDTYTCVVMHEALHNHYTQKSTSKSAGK


Legend:
Assay in all cases: SPR Biacore, biotinylated receptor on SA sensor, pH 7.4, 15 C
CTLA4 Fc bIgG3aWinSAS = target: T1, CTLA4 Fc bIgG3aWinSAS
CTLA4 Fc bIgG3aSAS = target: T2, CTLA4 Fc bIgG3aSAS
CTLA4 Fc bIgG3aSAP = target: T3, CTLA4 Fc bIgG3aSAP
CTLA4 Fc bIgG1aWin = target: T4, CTLA4 Fc bIgG1aWin
Description: (§1) A Biacore SPR binding assay was designed to test the affinity of bovine IgG subclasses to bFcgR1, bFcgR2 and bFcgR3. All reported KD's were measured by Biacore (Cytiva, Marlborough, MA, USA) using series S SA sensor. Biotinylated-bovine FcgR1, R2 and R3 were captured on the sensor surface using a modified SA capture method to reach the desired surface density. 10 mM HEPES, 150 mM NaCl, 3 mM EDTA, 0.05% v/v surfactant P20, pH7.4 buffer was used as the running and titration buffer. Various concentrations of bovine CTLA4-Fc fusions or mAbs were titrated and flowed over the receptor surface and affinities were determined using Biacore T200 Evaluation software (Cytiva, Marlborough, MA, USA) with 1:1 binding model. The method of double referencing has been applied where the reference flow cell was subtracted from the flow cell containing immobilized receptors and blank runs containing buffer only were subtracted out from all runs. Flow cells were regenerated using 10 mM Glycine pH1.5. Runs were performed at 15° C.
(§2) The ability to knock out binding to bovine Fc gamma receptors was evaluated by comparing SPR Biacore bFcgR affinity of bIgG1a and bIgG1b wildtype Fc to the bIgG1a and bIgG1b mutations, described above. All mutations made to bIgG1 are identical for the a and b allotypes. Biacore methods for bFcgR1, R2, and R3 were performed as described in Example 1.

CTLA4 Fc bIgG1aSAS = target: T5, CTLA4 Fc bIgG1aSAS
Description: as §1, §2

Binder	binding result (CTLA4 Fc bIgG3aWinSAS)	binding result (CTLA4 Fc bIgG3aSAS)	binding result (CTLA4 Fc bIgG3aSAP)	Kd (CTLA4 Fc bIgG1aWin)	binding result (CTLA4 Fc bIgG1aSAS)	binding result (CTLA4 Fc bIgG1aWin)
recombinant bovine FcgR2 (receptor, biotin on the BAP tag (BirA), also called bFcgR2; bFcgRII) KPDLPKAVVTIQPAWINVLREDHVTLTCQGTSFSAGNLTTWFHNGSSIHTQKQPSYSFRAGSNDSGSYRCQREQTSLSDPVHLDVISDWLLLQTPSLVFQEGEPIMLRCHSWRNQPLNKITFYQDRKSKIFSYQRTNFSIPRANLSHSGQYHCTAFIGKMLHSSQPVNITVQESSSSGPSSMTHHHHHHAGLNDIFEAQKIEWHE	no binding	no binding	no binding	2.79 nM	no binding	–
recombinant bovine FcgR3 (receptor, biotin on the BAP tag (BirA), also called bFcgR3; bFcgRIII) DTQTADPSKAVVLLDPQWNHVLTNDRVTLKCQGDYPVEDNSTKWWHNGTLISSQTPSYFIADVKVQDSGEYKCQTGLSAPSDPVKLEVHVGWLLLQVAQRVVNVGKPIRLKCHSWKKTPVAKVQYFRNGRGKKYSHGNSDFHIPEAKLEHSGSYFCRGIIGSKNESSESVQITVQAPETLQTVSSFFLPWHQHHHHHHAGLNDIFEAQKIEWHE	–	–	–	–	no binding	no binding

Reference: patent US20230416410A1 (ZOETIS SERVICES, published 2023)
